Reference: patent US20240343803A1 (SHANDONG SIMCERE BIOPHARMACEUTICAL, published 2024)
Changes are numbered by the printed parent chain.

B1: PVRIG-A11 (Fc fusion)
chain: QLQLVESGGGLVQPGGSLRLSCAASGFTDDYYAIGWFRQAPGKEREGVSCISGSGGSTNYEDSVKGRFAISRDNAKNMVYLQMNDLKPEDTAVYYCAADPFWSAPCTGHNDRYFDVWGQGTLVTVSS
notes: heavy chain antibody VHH-hinge-CH2-CH3, human IgG1 constant part; not shown: human IgG1 hinge-CH2-CH3
B2: TIGIT-002-H2L1 (antibody, V domains shown)
VH: EVQLQESGPGLVKPSETLSLTCAVSGYSITSDSWNWIRQPPGKKLEWIGYISYSGNTYYNPSLKSRVTISRDTSKNQFSLKLSSVTAADTAVYYCARLDFSNYGGAVDYWGQGTTVTVSS
VL: DIVMTQTPLSLSVTPGQPASISCKASQNVRTAVAWYLQKPGQSPQLMIYSASYRYTGVPDRFSGSGSGTDFTLKISRVEAEDVGVYYCQQYYTTPWTFGGGTKVEIK
notes: Humanized anti-TIGIT antibody
B3: TIGIT-002-H3L1 (antibody, V domains shown)
VH: B2 VH with I48M, V67I
VL: B2 VL
notes: Humanized anti-TIGIT antibody
B4: TIGIT-002-H4L1 (antibody, V domains shown)
VH: B2 VH with W47Y
VL: B2 VL
notes: Humanized anti-TIGIT antibody
B5: TIGIT-002-H2L2 (antibody, V domains shown)
VH: B2 VH
VL: B2 VL with L37Q
notes: Humanized anti-TIGIT antibody
B6: TIGIT-002-H1L1 (antibody, V domains shown)
VH: B2 VH with K44G
VL: B2 VL
notes: Humanized anti-TIGIT antibody
B7: TIGIT-002-H1L2 (antibody, V domains shown)
VH: B2 VH with K44G
VL: B2 VL with L37Q
notes: Humanized anti-TIGIT antibody
B8: TIGIT-002-H4L2 (antibody, V domains shown)
VH: B2 VH with W47Y
VL: B2 VL with L37Q
notes: Humanized anti-TIGIT antibody
B9: TIGIT-002-H3L2 (antibody, V domains shown)
VH: B2 VH with I48M, V67I
VL: B2 VL with L37Q
notes: Humanized anti-TIGIT antibody

target: T1, human PVRIG-mFc protein (Acro, PVG-H5253) (human, UniProt Q6DKI7 41-171, limits assumed); test: FACS competition, PVRIG-mFc binding to CHO-K1-CD112 cells, competitor CD112 on cells
T1 construct: bought protein
T1 sequence (looked up): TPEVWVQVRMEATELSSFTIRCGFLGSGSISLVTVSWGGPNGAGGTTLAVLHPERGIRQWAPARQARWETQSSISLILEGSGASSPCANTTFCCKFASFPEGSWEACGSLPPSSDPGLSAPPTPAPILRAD
Experimental: A working solution of human PVRIG-mFc protein (Acro, PVG-H5253) prepared with staining buffer, 1 μg/mL (four-fold concentration), was added into a 96-well plate (50 μL PVRIG-mFc working solution per well). […] The diluted antibodies were added to the well containing 50 μL of PVRIG-mFc. The plate was placed on a microplate shaker at 400 rpm for 1 minute to fully mix the antibodies and PVRIG-mFc proteins, and then incubated at 4° C. for 30 minutes. After the incubation, the cell suspension prepared above (100 μL) was added into the wells, gently mixed with the pipette tip and incubated at 4° C. for 30 minutes. After the incubation, the cells were washed twice with staining buffer (200 μL per well) and centrifuged at 350×g for 5 minutes to discard the supernatant. The PE goat anti-mouse IgG Fc antibody (Biolegend, 405337) was diluted 250 times with staining buffer, added into the washed wells (100 μL per well), mixed well, and stained at 4° C. for 30 minutes. After staining, the cells were washed twice with staining buffer, finally resuspended with 200 μL staining buffer and analyzed by flow cytometry (BD, Canto II). The weaker the fluorescence signal, the stronger the ability of the antibodies blocks the binding of CHO-K1 human CD112 cells to the PVRIG-mFc protein. An antibody binding curve was drawn with concentration of antibodies as the abscissa and the corresponding Mean Fluorescence Intensity (MFI) as the ordinate. The IC50 value of the antibodies and the AUC value of the binding curve were calculated by using a Four Parameter Logistic Fit (GraphPadPrism9). The smaller the IC50 value and AUC value, the stronger the ability of the antibodies competes with CHO-K1-CD112 cells to bind to human PVRIG-mFc protein. […] […] The smaller the percentage value, the stronger the blocking ability of the antibodies.

% AUC to COM701-hIgG4 [%] | % AUC to SRF813-hIgG1 [%] | % IC50 to COM701-hIgG4 [%] | % IC50 to SRF813-hIgG1 [%] | Binder
78 | 58.9 | 62.8 | 64.1 | B1

target: T2, Full-length human TIGIT on CHO-K1 cells (CHO-K1 human TIGIT) (human, UniProt Q495A1 22-244); test: cell binding, CHO-K1 human TIGIT high expression strain
T2 construct: NCBI XP_024309156.1; the entry includes the signal peptide (limits not recoverable); The strain (high, medium, low) is named under assay; also called high expression strain 1D2; medium expression strain 2D10
T2 sequence: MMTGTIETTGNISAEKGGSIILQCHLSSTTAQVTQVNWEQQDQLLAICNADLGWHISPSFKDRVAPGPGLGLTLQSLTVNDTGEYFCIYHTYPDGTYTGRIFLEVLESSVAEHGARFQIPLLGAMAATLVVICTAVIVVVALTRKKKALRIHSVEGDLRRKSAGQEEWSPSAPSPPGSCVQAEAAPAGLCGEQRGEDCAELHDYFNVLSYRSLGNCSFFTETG
Experimental: (§1) The collected cells were washed once with PBS (Hyclone, CAT #SH30256), resuspended to 2×10⁵/50 μL with 1% BSA-PBS. The antibodies were diluted to 80 nM with 1% BSA-PBS (diluted by 3-fold serial dilution for 12 concentration points). The 50 μL cells were then mixed with 50 μL diluted antibodies, and then incubated at 4° C. for 60 minutes. […] After washing twice with PBS, the cell samples were resuspended with 1% BSA-PBS, 100 μL/well and then analyzed by flow cytometry (BD, Canto II). […] [0298] (c) The effect of anti-TIGIT chimeric antibodies blocking the interaction between Bio-CD155-His and CHO-K1 human TIGIT high expression cell strains detected by FACS
(§2) The affinity of the above humanized antibodies with human TIGIT ECD-His is detected by BIAcore, and with reference to the methods of Example 4 (a), (b), and (d), the binding activity of the above humanized antibodies to human TIGIT ECD-mFc, CHO-K1 human TIGIT, CHO-K1 cynomolgus monkey TIGIT and cynomolgus monkey TIGIT ECD-mFc, and the effect of the humanized antibodies blocking the binding between human TIGIT ECD-mFc and CHO-K1 CD155 are detected, the results are shown in Table 18.

EC50 [nM] | Binder
0.0468 | B2
0.0204 | B3
0.0253 | B4
0.0215 | B5
0.0201 | B6
0.0167 | B7
0.0294 | B8
0.0329 | B9

target: T3, Fusion protein of extracellular domain of human TIGIT and human IgG1 Fc fragment (human TIGIT ECD-hFc) (human); test: blocking of TIGIT ECD-hFc binding to CHO-K1 CD155 cells
T3 construct: The entry includes the signal peptide (limits not recoverable) and the human IgG1 Fc
T3 sequence (chain, as listed by the source limits assumed): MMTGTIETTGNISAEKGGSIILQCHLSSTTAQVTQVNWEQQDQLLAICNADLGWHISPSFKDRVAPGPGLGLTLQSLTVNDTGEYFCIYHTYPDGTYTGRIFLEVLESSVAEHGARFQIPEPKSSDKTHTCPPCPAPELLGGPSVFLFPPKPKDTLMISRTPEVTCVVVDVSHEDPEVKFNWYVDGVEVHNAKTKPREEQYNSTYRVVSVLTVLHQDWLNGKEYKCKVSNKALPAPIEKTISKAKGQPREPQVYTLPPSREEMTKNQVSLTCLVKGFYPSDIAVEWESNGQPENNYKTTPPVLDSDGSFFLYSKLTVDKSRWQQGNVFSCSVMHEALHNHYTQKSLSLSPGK
Summary of the method: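 Inhibition was expressed as IC50 values derived from the inhibition curves of a cell-based ELISA. CHO-K1 CD155 cells were cultured overnight, fixed, and blocked with 5% skim milk-PBS. Antibodies were first premixed for 0.5 h with human TIGIT ECD-hFc at a working concentration of 30 ng/mL, and the mixture was then added to the cells for 1.5-2 h at 37° C. Bound TIGIT was detected with HRP secondary antibody (1:5000, 37° C, 1 h) and TMB, and read as OD450 nm.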

IC50 [nM] | Binder
0.646 | B2
0.459 | B3
0.445 | B4
0.56 | B5
0.526 | B6
0.421 | B7
0.44 | B8
0.394 | B9

Target: T4, Fusion protein of extracellular domain of human TIGIT and mouse IgG2a Fc fragment (human TIGIT ECD-mFc) (human)
T4 construct: The entry includes the signal peptide (limits not recoverable) and the mouse IgG2a Fc
T4 chain: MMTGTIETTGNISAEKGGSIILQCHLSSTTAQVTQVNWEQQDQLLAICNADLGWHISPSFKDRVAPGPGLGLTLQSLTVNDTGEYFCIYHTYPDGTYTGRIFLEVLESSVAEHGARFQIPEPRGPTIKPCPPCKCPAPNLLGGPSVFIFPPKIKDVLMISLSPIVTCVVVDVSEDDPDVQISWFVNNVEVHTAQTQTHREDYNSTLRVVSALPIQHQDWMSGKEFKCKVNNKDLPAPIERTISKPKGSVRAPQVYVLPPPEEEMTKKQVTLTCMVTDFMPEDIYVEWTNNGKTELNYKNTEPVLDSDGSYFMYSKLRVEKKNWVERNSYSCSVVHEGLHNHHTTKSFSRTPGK
Test: ELISA, human TIGIT ECD-mFc
Experimental: (§3) After discarding the coating solution, the plate was added with 5% skim milk powder (Sangon Biotech, CAT #A600669-0250)-PBS, 250 μL/well, and incubated at 37° C. for 2-4 hours. […] The enzyme-labeled plate was then washed with 0.05% Tween 20-PBS for 3 times on the Microplate Washer, added with tested antibodies diluted to 13 nM with 1% BSA (diluted by 3-fold serial dilution for 12 concentration points), 50 μL/well, and incubated at 37° C. for 1.5-2 hours. The plate was washed with 0.05% Tween 20-PBS for 3 times on the Microplate Washer, then added with HRP enzyme-labeled antibodies (Merck, CAT #AP113P) diluted with 1% BSA (Sangon Biotech, CAT #A500023-0100)-PBS at a dilution ratio of 1:5000, 50 μL/well, and incubated at 37° C. for 1 hour. After washing 3 times with 0.05% Tween 20-PBS on the Microplate Washer, the plate was added with TMB chromogenic solution (KPL, CAT #52-00-03), 50 μL/well, and incubated at room temperature for 7-10 minutes. 1M HCL, 50 μL/well, was then added into the plate to terminate the reaction, and the OD450 nm was read by a microplate reader (Biotek, Powerwave HT). […] (b) The binding activity of anti-TIGIT chimeric antibodies to CHO-K1 human TIGIT (cells with high, medium and low expression levels) and CHO-KI cynomolgus monkey TIGIT detected by FACS.
as §2

EC50 [nM] | Binder
0.0188 | B2
0.012 | B3
0.0164 | B4
0.0222 | B5
0.0155 | B6
0.0158 | B7
0.0179 | B8
0.017 | B9

target: T5, human PVRIG-his (AcroBiosystems, Cat NO. PVG-H52H4) (human, UniProt Q6DKI7 41-171, limits assumed); test: SPR (BIAcore), antibody captured on Protein A chip, human PVRIG-His analyte
T5 construct: also called human PVRIG protein
T5 sequence (looked up): T1 sequence (looked up)
Experimental: Biacore was used to detect the specific binding between anti-PVRIG antibody and human PVRIG protein. Protein A chip was used in the BIAcore assay. The time required for the chip to capture the diluted antibody and saturate the binding antigen to reach Rₘₐₓ (Maximum binding capacity, 50 RU) was measured by manual run. […] The affinity of antibody for antigen was measured by multi-cycle kinetics. In each cycle, the antibodies were injected prior to the injection of gradient concentraions of PVRIG proteins allowing the occurrence of antibody-antigen association and dissociation After each cycle, the Protein A chip was regenerated by Glycine, pH 1.5 (to remove the proteins on the chip). The affinity of antibody for antigen was calculated by BIAcore T200 analysis software.

Kd [nM] | koff [s⁻¹] | kon [M⁻¹ s⁻¹] | Binder
0.106 | 0.00338 | 3.18e+07 | B1

target: T6, Full-length cynomolgus monkey TIGIT on CHO-K1 cells (CHO-K1 cynomolgus monkey TIGIT) (cynomolgus monkey); test: cell binding, CHO-K1 cynomolgus monkey TIGIT
T6 construct: NCBI XP_015300911.1
T6 sequence (chain, as listed by the source limits assumed): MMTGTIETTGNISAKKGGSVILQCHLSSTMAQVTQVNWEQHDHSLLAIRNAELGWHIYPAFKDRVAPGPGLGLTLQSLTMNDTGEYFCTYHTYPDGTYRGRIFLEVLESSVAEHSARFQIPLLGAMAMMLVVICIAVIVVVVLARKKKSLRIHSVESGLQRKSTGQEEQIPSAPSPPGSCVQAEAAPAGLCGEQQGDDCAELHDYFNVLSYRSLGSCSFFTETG
Experimental: as §1, §2

EC50 [nM] | Binder
0.181 | B2
0.232 | B3
0.0543 | B4
0.12 | B5
0.187 | B6
0.221 | B7
0.0474 | B8
0.113 | B9

target: T7, Fusion protein of extracellular domain of cynomolgus monkey TIGIT and mouse IgG2a Fc fragment (cynomolgus … (cynomolgus monkey)); test: ELISA, cynomolgus monkey TIGIT ECD-mFc
T7 construct: The entry includes the signal peptide (limits not recoverable) and the mouse IgG2a Fc
T7 sequence (chain, as listed by the source limits assumed): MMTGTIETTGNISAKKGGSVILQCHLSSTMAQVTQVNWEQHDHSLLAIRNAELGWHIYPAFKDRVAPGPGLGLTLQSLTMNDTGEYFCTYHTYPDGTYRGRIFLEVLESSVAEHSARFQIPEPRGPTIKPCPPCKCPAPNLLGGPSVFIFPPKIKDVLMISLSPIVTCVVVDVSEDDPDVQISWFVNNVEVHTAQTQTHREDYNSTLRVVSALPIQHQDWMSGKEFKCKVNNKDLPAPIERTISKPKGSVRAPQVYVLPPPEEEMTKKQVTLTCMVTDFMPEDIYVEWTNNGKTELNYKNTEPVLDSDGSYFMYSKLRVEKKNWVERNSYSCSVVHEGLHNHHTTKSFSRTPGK
Experimental: as §3, §2

EC50 [nM] | Binder
0.0877 | B2
0.0253 | B3
0.0206 | B4
0.0554 | B5
0.209 | B6
0.0811 | B7
0.0254 | B8
0.0218 | B9
